Test results taken from publication PMC10723142, “Structures of the P. aeruginosa FleQ-FleN master regulators reveal large-scale conformational switching in motility and biofilm control” (Proceedings of the National Academy of Sciences of the …, 2023).

B1: full-length FleN^D48A (His6 tag cleaved) (natural protein)
chain: MKQMGSMHPVQVIAVTGGKGGVGKTNVSVNLALALADLGRRVMLLDAALGLANVDVLLGLTPKRTLADVIEGRCELRDVLLLGPGGVRIVPAASGTQSMVHLSPMQHAGLIQAFSDISDNLDVLVVDTAAGIGDSVVSFVRAAQEVLLVVCDEPTSITDAYALIKLLNRDHGMTRFRVLANMAHSPQEGRNLFAKLTKVTDRFLDVALQYVGVIPYDESVRKAVQKQRAVYEAFPRSKASLAFKAVAQKVDSWPLPANPRGHLEFFVERLVQHPATGSAV
notes: FleN, P. aeruginosa PAO1, full-length with D48A; pProEx-Htb-cloned, tag cleaved by HRV3c protease; source: E. coli BL21 Star (DE3), coexpressed with FleQ^REC-AAA+, purified as complex (IMAC, HRV3c cleavage, SEC); not shown: His6, N-terminal, cleaved
B2: His6-tagged full-length FleN^D48A (tag not cleaved) (natural protein)
chain: MKQMGSMHPVQVIAVTGGKGGVGKTNVSVNLALALADLGRRVMLLDAALGLANVDVLLGLTPKRTLADVIEGRCELRDVLLLGPGGVRIVPAASGTQSMVHLSPMQHAGLIQAFSDISDNLDVLVVDTAAGIGDSVVSFVRAAQEVLLVVCDEPTSITDAYALIKLLNRDHGMTRFRVLANMAHSPQEGRNLFAKLTKVTDRFLDVALQYVGVIPYDESVRKAVQKQRAVYEAFPRSKASLAFKAVAQKVDSWPLPANPRGHLEFFVERLVQHPATGSAV
notes: pProEx-Htb-cloned; source: E. coli BL21 Star (DE3), coexpressed with FleQ^FL, purified as complex (IMAC, SEC), without tag cleavage; not shown: His6, N-terminal, kept
B3: full-length untagged FleQ (FleQ^FL) (natural protein)
chain: not shown
notes: FleQ, P. aeruginosa PAO1 (amplified from genomic DNA), residues 1-490 covering the full-length protein; untagged, from pRSFDuet1*; also called FleQ^1-490; wild-type FleQ; source: E. coli BL21 Star (DE3), coexpressed with His6-FleN variants; in lysate (IMAC co-purification) and purified as complex (IMAC, SEC) for cryo-EM
B4: FleQ receiver and ATPase domain tandem (FleQ^REC-AAA+) (domain or fragment)
chain: not shown
notes: FleQ, P. aeruginosa PAO1, residues 1-394 (REC and AAA+ domains); untagged, from pRSFDuet1*; also called FleQ^1-394; HTH-truncated FleQ; source: E. coli BL21 Star (DE3), coexpressed with His6-FleN variants; in lysate (IMAC co-purification) and purified as complex (IMAC, SEC) for cryo-EM

Columns and labels:
[1] = molecular target: the molecule itself; assay: cryo-EM structure; c-di-GMP-bound complex, coexpressed and co-purified (IMAC, tag cleavage, SEC with 2 uM c-di-GMP); 200 uM AppCp and 4 uM c-di-GMP before grid preparation
[2] = molecular target: B4; assay: as above; details: both partners purified
[3] = molecular target: B3; assay: cryo-EM structure; c-di-GMP-free complex, coexpressed and co-purified (IMAC, SEC), with AppCp (100 uM); 20 mM HEPES pH 8.0, 250 mM NaCl, 2 mM MgCl2, 2% glycerol; C2 symmetry; details: both partners purified
[4] = molecular target: the molecule itself; assay: as above
[5] = molecular target: B2; assay: as above; details: both partners purified
[6] = molecular target: B1; assay: cryo-EM structure; c-di-GMP-bound complex, coexpressed and co-purified (IMAC, tag cleavage, SEC with 2 uM c-di-GMP); 200 uM AppCp and 4 uM c-di-GMP before grid preparation; details: both partners purified

Binder	binding result [1]	binding result [4]	other results
B1	binds	–	binding result [2]: binds
B2	–	binds	binding result [3]: binds
B3	–	binds	stoichiometry N [5]: 2 FleQ per FleN (4:2)
B4	binds	–	stoichiometry N [6]: 1.5 FleQ per FleN (3:2)
